Measured values reported in patent US12295987B2, “Method of using a GIP/GLP1 co-agonist for diabetes” (Eli Lilly and Company, priority 2018, dated 2025).

Target: T1, human gastric inhibitory peptide receptor (hGIPR) (Homo sapiens, UniProt P48546)
T1 construct: expressed in transfected cells; host or cells: HEK293
T1 sequence (P48546 22-466): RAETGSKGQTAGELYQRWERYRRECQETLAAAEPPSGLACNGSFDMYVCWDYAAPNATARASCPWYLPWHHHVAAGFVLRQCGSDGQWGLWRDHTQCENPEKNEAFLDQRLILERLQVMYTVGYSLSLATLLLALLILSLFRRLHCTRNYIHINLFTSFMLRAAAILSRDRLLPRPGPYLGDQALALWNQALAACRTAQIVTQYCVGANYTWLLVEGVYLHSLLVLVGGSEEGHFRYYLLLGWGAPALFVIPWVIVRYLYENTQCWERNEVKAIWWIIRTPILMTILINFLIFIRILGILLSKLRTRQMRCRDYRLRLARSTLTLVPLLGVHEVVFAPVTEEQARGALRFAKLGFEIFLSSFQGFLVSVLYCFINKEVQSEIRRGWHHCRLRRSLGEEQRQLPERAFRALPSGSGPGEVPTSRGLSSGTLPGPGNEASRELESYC
Assay: cAMP pharmacological functional assay in presence of 0.1% casein, hGIPR
Assay type: cell-based
Details: ratio of hGIPR to hGLP1R cAMP EC50 ratios

Row | Substance | [hGIPR/hGLP1R] EC50 Ratio
1 | Y-Aib-EGT-αMeF(2F)-TSDYSI-αMeL-LDEK((2-[2-(2-Amino-ethoxy)-ethoxy]-acetyl)2-CO—(CH2)18—CO2H)AQ-Aib-EFI-(D-Glu)-YLIEGGPSSGAPPPS-NH2 (YXEGTXTSDYSIXLDEKAQXEFIXYLIEGGPSSGAPPPS; Aib, αMeF(2F), αMeL, D-Glu; lipidated K; amide; (2)..(2) Xaa at position 2 is Aib; (6)..(6) Xaa at position 6 is alpha-methyl-Phe(2F); (13)..(13) Xaa at position 13 is alpha-methyl-Leu; MOD_RES (17)..(17) Lys at position 17 is chemically modified by conjugation of the epsilon-amino group of the Lys side chain with (2-[2-(2-amino-ethoxy)-ethoxy]-acetyl)2-CO-(CH2)18-CO2H; (20)..(20) Xaa at position 20 is Aib; (24)..(24) Xaa at position 24 is D-Gl) [Peptide 215] | 4.34
2 | Y-Aib-EGT-αMeF(2F)-TSDYSI-αMeL-LDHK((2-[2-(2-Amino-ethoxy)-ethoxy]-acetyl)2-(γGlu)-CO—(CH2)18—CO2H)AQ-Aib-EFI-(D-Glu)-YLIEGGPSSGAPPPS-NH2 (YXEGTXTSDYSIXLDHKAQXEFIXYLIEGGPSSGAPPPS; Aib, αMe residues, lipidated Lys, D-Glu, C-terminal amide; (2)..(2) Xaa at position 2 is Aib; (6)..(6) Xaa at position 6 is alpha-methyl-Phe(2F); (13)..(13) Xaa at position 13 is alpha-methyl-Leu; MOD_RES (17)..(17) Lys at position 17 is chemically modified by conjugation of the epsilon-amino group of the Lys side chain with (2-[2-(2-amino-ethoxy)-ethoxy]-acetyl)2-(gamma-Glu)-CO-(CH2)18- CO2H; (20)..(20) Xaa at position 20 is Aib; (24)..(24) Xaa at positi) [Peptide 230] | 5.53
3 | Y-Aib-EGT-αMeF(2F)-TSDYSI-αMeL-LDKK((2-[2-(2-Amino-ethoxy)-ethoxy]-acetyl)2-(γGlu)-CO—(CH2)18—CO2H)AQ-Aib-EFI-(D-Glu)-YLIEGGPSSGAPPPS-NH2 (YXEGTXTSDYSIXLDKKAQXEFIXYLIEGGPSSGAPPPS; Aib, αMeF(2F), αMeL, D-Glu; lipidated K; amide; (2)..(2) Xaa at position 2 is Aib; (6)..(6) Xaa at position 6 is alpha-methyl-Phe(2F); (13)..(13) Xaa at position 13 is alpha-methyl-Leu; MOD_RES (17)..(17) Lys at position 17 is chemically modified by conjugation of the epsilon-amino group of the Lys side chain with (2-[2-(2-amino-ethoxy)-ethoxy]-acetyl)2-(gamma-Glu)-CO-(CH2)18- CO2H; (20)..(20) Xaa at position 20 is Aib; (24)..(24) Xaa at positi) [Peptide 212] | 5.41
4 | Y-Aib-EGT-αMeF(2F)-TSDYSI-αMeL-LDKK((2-[2-(2-Amino-ethoxy)-ethoxy]-acetyl)-(γGlu)-(2-[2-(2-Amino-ethoxy)-ethoxy]-acetyl)-CO—(CH2)18—CO2H)AQ-Aib-EFI-(D-Glu)-YLIEGGPSSGAPPPS-NH2 (YXEGTXTSDYSIXLDKKAQXEFIXYLIEGGPSSGAPPPS; Aib, αMeF(2F), αMeL, D-Glu; lipidated K; amide; (2)..(2) Xaa at position 2 is Aib; (6)..(6) Xaa at position 6 is alpha-methyl-Phe(2F); (13)..(13) Xaa at position 13 is alpha-methyl-Leu; MOD_RES (17)..(17) Lys at position 17 is chemically modified by conjugation of the epsilon-amino group of the Lys side chain with (2-[2-(2-Amino-ethoxy)-ethoxy]-acetyl)-(gamma-Glu)-(2-[2-(2-Amino- ethoxy)-ethoxy]-acetyl)-CO-(CH2)18-CO2H; (20)..(20) Xaa at positi) [Peptide 211] | 3.59
5 | Y-Aib-EGT-αMeF(2F)-TSDYSILLD-Orn-K((2-[2-(2-Amino-ethoxy)-ethoxy]-acetyl)2-(γGlu)-CO—(CH2)16—CO2H)AQ-Aib-EFI-(D-Glu)-YLIEGGPSSGAPPPS-NH2 (YXEGTXTSDYSILLDXKAQXEFIXYLIEGGPSSGAPPPS; Aib, Orn, αMeF(2F), lipidated Lys, D-Glu, amide; (2)..(2) Xaa at position 2 is Aib; (6)..(6) Xaa at position 6 is alpha-methyl-Phe(2F); (16)..(16) Xaa at position 16 is Orn; MOD_RES (17)..(17) Lys at position 17 is chemically modified by conjugation of the epsilon-amino group of the Lys side chain with (2-[2-(2-amino-ethoxy)-ethoxy]-acetyl)2-(gamma-Glu)-CO-(CH2)16- CO2H; (20)..(20) Xaa at position 20 is Aib; (24)..(24) Xaa at position 24 is D-Gl) [Peptide 248] | 6.35
6 | Y-Aib-EGT-αMeF(2F)-TSDYSILLDEK((2-[2-(2-Amino-ethoxy)-ethoxy]-acetyl)2-(γGlu)-CO—(CH2)18—CO2H)AQ-Aib-EFI-(D-Glu)-YLIEGGPSSGAPPPS-NH2 (YXEGTXTSDYSILLDEKAQXEFIXYLIEGGPSSGAPPPS; Aib, αMeF(2F), D-Glu; lipidated K; amide; (2)..(2) Xaa at position 2 is Aib; (6)..(6) Xaa at position 6 is alpha-methyl-Phe(2F); MOD_RES (17)..(17) Lys at position 17 is chemically modified by conjugation of the epsilon-amino group of the Lys side chain with (2-[2-(2-amino-ethoxy)-ethoxy]-acetyl)2-(gamma-Glu)-CO-(CH2)18- CO2H; (20)..(20) Xaa at position 20 is Aib; (24)..(24) Xaa at position 24 is D-Glu; MOD_RES (39)..(39) Ser at position) [Peptide 226] | 3.42
7 | Y-Aib-EGT-αMeF-TSDHSILLDKK((2-[2-(2-Amino-ethoxy)-ethoxy]-acetyl)2-(γGlu)-CO—(CH2)18—CO2H)AQ-Aib-AFIEYLIEGGPSSGAPPPS-NH2 (YXEGTXTSDHSILLDKKAQXAFIEYLIEGGPSSGAPPPS; Aib, αMeF; acylated lysine C20 diacid; amide; (2)..(2) Xaa at position 2 is Aib; (6)..(6) Xaa at position 6 is alpha-methyl-Phe; MOD_RES (17)..(17) Lys at position 17 is chemically modified by conjugation of the epsilon-amino group of the Lys side chain with (2-[2-(2-amino-ethoxy)-ethoxy]-acetyl)2-(gamma-Glu)-CO-(CH2)18- CO2H; (20)..(20) Xaa at position 20 is Aib; MOD_RES (39)..(39) Ser at position 39 is amidated) [Peptide 128] | 3.51
8 | Y-Aib-EGT-αMeF-TSDLSILLDKK((2-[2-(2-Amino-ethoxy)-ethoxy]-acetyl)2-(γGlu)-CO—(CH2)18—CO2H)AQ-Aib-AFIEYLIEGGPSSGAPPPS-NH2 (YXEGTXTSDLSILLDKKAQXAFIEYLIEGGPSSGAPPPS; Aib, αMeF; acylated lysine C20 diacid; amide; (2)..(2) Xaa at position 2 is Aib; (6)..(6) Xaa at position 6 is alpha-methyl-Phe; MOD_RES (17)..(17) Lys at position 17 is chemically modified by conjugation of the epsilon-amino group of the Lys side chain with (2-[2-(2-amino-ethoxy)-ethoxy]-acetyl)2-(gamma-Glu)-CO-(CH2)18- CO2H; (20)..(20) Xaa at position 20 is Aib; MOD_RES (39)..(39) Ser at position 39 is amidated) [Peptide 129] | 3.46
9 | Y-Aib-EGT-αMeF-TSDYSI-Aib-LDEK((2-[2-(2-Amino-ethoxy)-ethoxy]-acetyl)2-(γGlu)-CO—(CH2)18—CO2H)AQ-Aib-EFI-(D-Glu)-YLIEGGPSSGAPPPS-NH2 (YXEGTXTSDYSIXLDEKAQXEFIXYLIEGGPSSGAPPPS; Aib, αMeF, D-Glu; lipidated K; amide; (2)..(2) Xaa at position 2 is Aib; (6)..(6) Xaa at position 6 is alpha-methyl-Phe; (13)..(13) Xaa at position 13 is Aib; MOD_RES (17)..(17) Lys at position 17 is chemically modified by conjugation of the epsilon-amino group of the Lys side chain with (2-[2-(2-amino-ethoxy)-ethoxy]-acetyl)2-(gamma-Glu)-CO-(CH2)18- CO2H; (20)..(20) Xaa at position 20 is Aib; (24)..(24) Xaa at position 24 is D-Glu; M) [Peptide 225] | 3.80
